Results from the supplement of paper PMC10567573.

B1: FAM50A (parent)
chain: KKREKQREQMEQMKQRIAEENIMK

Variants of: B1
Assay: protein stability index of a GFP-peptide fusion (GPS, HEK-293T) (PSI 1-6); higher = more stable
Settings: c terminus: a fixed tail appended
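Also: lentivirally expressed fusions sorted by FACS into six bins by GFP to DsRed ratio, PSI derived from sequencing read proportions per bin multiplied by bin number.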

| Variant | protein stability index |
| --- | --- |
| KKREKQREQMVQMKQRIAEENIMK | 4.66 |
| KKREKQREQMKQMKQRIAEENIMK | 4.5 |
| KKREKQREQMGQMKQRIAEENIMK | 4.48 |
| KKREKQREQMWQMKQRIAEENIMK | 3.9 |
| KKREKQREQMQQMKQRIAEENIMK | 4.68 |
| KKREKQREQMHQMKQRIAEENIMK | 4.62 |
| KKREKQREQMFQMKQRIAEENIMK | 4.15 |
| KKREKQREQMTQMKQRIAEENIMK | 4.57 |
| KKREKQREQMDQMKQRIAEENIMK | 5.03 |
| KKREKQREQMIQMKQRIAEENIMK | 4.4 |
| KKREKQREQMLQMKQRIAEENIMK | 3.96 |
| KKREKQREQMPQMKQRIAEENIMK | 4.74 |
| KKREKQREQMNQMKQRIAEENIMK | 4.86 |
| KKREKQREQMSQMKQRIAEENIMK | 4.41 |
| KKREKQREQMYQMKQRIAEENIMK | 4.25 |
| KKREKQREQMRQMKQRIAEENIMK | 4.49 |
| KKREKQREQMMQMKQRIAEENIMK | 4.17 |
| KKREKQREQMCQMKQRIAEENIMK | 4.13 |
| KKREKQREQMEQMKQRDAEENIMK | 5.3 |
| KKREKQREQMEQMKQRGAEENIMK | 5.41 |
| KKREKQREQMEQMKQREAEENIMK | 5.1 |
| KKREKQREQMEQMKQRKAEENIMK | 4.25 |
| KKREKQREQMEQMKQRFAEENIMK | 5.12 |
| KKREKQREQMEQMKQRHAEENIMK | 5.02 |

| Variant | protein stability index |
| --- | --- |
| KKREKQREQMEQMKQRAAEENIMK | 5.39 |
| KKREKQREQMEQMKQRLAEENIMK | 4.92 |
| KKREKQREQMEQMKQRCAEENIMK | 4.37 |
| KKREKQNEQMEQMKQRIAEENIMK | 4.93 |
| KKREKQMEQMEQMKQRIAEENIMK | 4.52 |
| KKREKQWEQMEQMKQRIAEENIMK | 4.13 |
| KKREKQTEQMEQMKQRIAEENIMK | 4.84 |
| KKREKQQEQMEQMKQRIAEENIMK | 5.25 |
| KKREKQPEQMEQMKQRIAEENIMK | 4.7 |
| KKREKQVEQMEQMKQRIAEENIMK | 4.98 |
| KKREKQSEQMEQMKQRIAEENIMK | 5.51 |
| KKREKQYEQMEQMKQRIAEENIMK | 4.76 |
| KKREKQREQMEQLKQRIAEENIMK | 5.37 |
| KKREKQREQMEQYKQRIAEENIMK | 3.98 |
| KKREKQREQMEQIKQRIAEENIMK | 4.29 |
| KKREKQREQMEQVKQRIAEENIMK | 4.82 |
| KKREKQREQMEQRKQRIAEENIMK | 5.08 |
| KKREKQREQMEQHKQRIAEENIMK | 4.65 |
| KKREKQREQMEQKKQRIAEENIMK | 4.77 |
| KKREKQREQMEQEKQRIAEENIMK | 5.5 |
| KKREKQREQMEQNKQRIAEENIMK | 5.21 |
| KKREKQREQMEQAKQRIAEENIMK | 4.95 |
| KKREKQREQMEQGKQRIAEENIMK | 5.27 |
| KKREKQREQMEQFKQRIAEENIMK | 4.67 |

| Variant | protein stability index |
| --- | --- |
| KKREKQREQMEQQKQRIAEENIMK | 5.26 |
| KKREKQREQMEQTKQRIAEENIMK | 5.31 |
| KKREKQREQMEQCKQRIAEENIMK | 5.03 |
| KKREKQREQMEQSKQRIAEENIMK | 5.31 |
| KKREKQREQMEQDKQRIAEENIMK | 5.13 |
| KKREKQREQMEQWKQRIAEENIMK | 2.63 |
| KKREKQREQMEQPKQRIAEENIMK | 4.99 |
| KKREKQREQWEQMKQRIAEENIMK | 4.7 |
| KKREKQREQSEQMKQRIAEENIMK | 4.89 |
| KKREKQREQPEQMKQRIAEENIMK | 5.15 |
| KKREKQREQHEQMKQRIAEENIMK | 5.16 |
| KKREKQREQDEQMKQRIAEENIMK | 4.81 |
| KKREKQREQTEQMKQRIAEENIMK | 4.69 |
| KKREKQREQKEQMKQRIAEENIMK | 4.71 |
| KKREKQREQREQMKQRIAEENIMK | 5.14 |
| KKREKQREQEEQMKQRIAEENIMK | 5.14 |
| KKREKQREQLEQMKQRIAEENIMK | 4.07 |
| KKREKQREQVEQMKQRIAEENIMK | 4.37 |
| KKREKQREQFEQMKQRIAEENIMK | 4.15 |
| KKREKQREQQEQMKQRIAEENIMK | 4.86 |
| KKREKQREQCEQMKQRIAEENIMK | 4.86 |
| KKREKQREQGEQMKQRIAEENIMK | 5.19 |
| KKREKQREQAEQMKQRIAEENIMK | 4.92 |
| KKREKQREQIEQMKQRIAEENIMK | 4.7 |

| Variant | protein stability index |
| --- | --- |
| KKREKQREQNEQMKQRIAEENIMK | 4.9 |
| KKREKQREQYEQMKQRIAEENIMK | 4.61 |
| KKREKQREQMEQMQQRIAEENIMK | 5.15 |
| KKREKQREQMEQMCQRIAEENIMK | 4.57 |
| KKREKQREQMEQMAQRIAEENIMK | 5.21 |
| KKREKQREQMEQMHQRIAEENIMK | 5.01 |
| KKREKQREQMEQMYQRIAEENIMK | 4.39 |
| KKREKQREQMEQMMQRIAEENIMK | 4.53 |
| KKREKQREQMEQMRQRIAEENIMK | 4.59 |
| KKREKQREQMEQMEQRIAEENIMK | 5.01 |
| KKREKQREQMEQMGQRIAEENIMK | 5.02 |
| KKREKQREQMEQMIQRIAEENIMK | 4.05 |
| KKREKQREQMEQMFQRIAEENIMK | 4.32 |
| KKREKQREQMEQMTQRIAEENIMK | 4.3 |
| KKREKQREQMEQMWQRIAEENIMK | 3.9 |
| KKREKQREQMEQMDQRIAEENIMK | 5.02 |
| KKREKQREQMEQMVQRIAEENIMK | 4.63 |
| KKREKQREQMEQMSQRIAEENIMK | 5.06 |
| KKREKQREQMEQMLQRIAEENIMK | 4.11 |
| KKREKQREQMEQMPQRIAEENIMK | 5.67 |
| KKREKQREQMEQMNQRIAEENIMK | 4.86 |
| KKREKQREQMEQMKFRIAEENIMK | 4.44 |
| KKREKQREQMEQMKLRIAEENIMK | 4.7 |
| KKREKQREQMEQMKHRIAEENIMK | 4.84 |

| Variant | protein stability index |
| --- | --- |
| KKREKQREQMEQMKDRIAEENIMK | 5.02 |
| KKREKQREQMEQMKERIAEENIMK | 5.51 |
| KKREKQREQMEQMKWRIAEENIMK | 4.29 |
| KKREKQREQMEQMKNRIAEENIMK | 4.8 |
| KKREKQREQMEQMKSRIAEENIMK | 4.9 |
| KKREKQREQMEQMKTRIAEENIMK | 4.85 |
| KKREKQREQMEQMKIRIAEENIMK | 4.51 |
| KKREKQREQMEQMKCRIAEENIMK | 4.19 |
| KKREKQREQMEQMKKRIAEENIMK | 4.4 |
| KKREKQREQMEQMKYRIAEENIMK | 4.14 |
| KKREKQREQMEQMKGRIAEENIMK | 4.68 |
| KKREKQREQMEQMKPRIAEENIMK | 4.9 |
| KKREKQREQMEQMKVRIAEENIMK | 4.36 |
| KKREKQREQMEQMKARIAEENIMK | 4.67 |
| KKREKQREQMEQMKRRIAEENIMK | 4.73 |
| KKREKQREQMEQMKMRIAEENIMK | 4.5 |
| KKREKQREQMEHMKQRIAEENIMK | 4.58 |
| KKREKQREQMEWMKQRIAEENIMK | 4.45 |
| KKREKQREQMESMKQRIAEENIMK | 4.84 |
| KKREKQREQMEYMKQRIAEENIMK | 4.55 |
| KKREKQREQMENMKQRIAEENIMK | 5.04 |
| KKREKQREQMEKMKQRIAEENIMK | 4.57 |
| KKREKQREQMEDMKQRIAEENIMK | 5.02 |
| KKREKQREQMEMMKQRIAEENIMK | 4.27 |

| Variant | protein stability index |
| --- | --- |
| KKREKQREQMETMKQRIAEENIMK | 4.7 |
| KKREKQREQMEIMKQRIAEENIMK | 4.63 |
| KKREKQREQMEFMKQRIAEENIMK | 3.71 |
| KKREKQREQMERMKQRIAEENIMK | 4.39 |
| KKREKQREQMEAMKQRIAEENIMK | 4.44 |
| KKREKQREQMECMKQRIAEENIMK | 5.05 |
| KKREKQREQMEEMKQRIAEENIMK | 5.28 |
| KKREKQREQMEVMKQRIAEENIMK | 5.07 |
| KKREKQREQMELMKQRIAEENIMK | 4.55 |
| KKREKQREQMEPMKQRIAEENIMK | 4.9 |
| KKREKQREQMEGMKQRIAEENIMK | 4.66 |
| KKREKQRAQMEQMKQRIAEENIMK | 4.96 |
| KKREKQRSQMEQMKQRIAEENIMK | 4.41 |
| KKREKQRHQMEQMKQRIAEENIMK | 3.74 |
| KKREKQRMQMEQMKQRIAEENIMK | 4.58 |
| KKREKQRRQMEQMKQRIAEENIMK | 4.71 |
| KKREKQRDQMEQMKQRIAEENIMK | 4.63 |
| KKREKQRPQMEQMKQRIAEENIMK | 4.89 |
| KKREKQRKQMEQMKQRIAEENIMK | 4.48 |
| KKREKQRWQMEQMKQRIAEENIMK | 3.68 |
| KKREKQRGQMEQMKQRIAEENIMK | 4.85 |
| KKREKQRVQMEQMKQRIAEENIMK | 4.37 |
| KKREKQRFQMEQMKQRIAEENIMK | 4.29 |
| KKREKQRLQMEQMKQRIAEENIMK | 4.57 |

| Variant | protein stability index |
| --- | --- |
| KKREKQRNQMEQMKQRIAEENIMK | 4.44 |
| KKREKQRIQMEQMKQRIAEENIMK | 4.51 |
| KKREKQRYQMEQMKQRIAEENIMK | 4.23 |
| KKREKQRQQMEQMKQRIAEENIMK | 4.82 |
| KKREKQRTQMEQMKQRIAEENIMK | 4.31 |
| KKREKQRCQMEQMKQRIAEENIMK | 4.15 |
| KKREKQREQMEQMKQQIAEENIMK | 4.97 |
| KKREKQREQMEQMKQIIAEENIMK | 4.71 |
| KKREKQREQMEQMKQYIAEENIMK | 5.15 |
| KKREKQREQMEQMKQWIAEENIMK | 3.94 |
| KKREKQREQMEQMKQLIAEENIMK | 4.51 |
| KKREKQREQMEQMKQCIAEENIMK | 4.81 |
| KKREKQREQMEQMKQVIAEENIMK | 5.02 |
| KKREKQREQMEQMKQMIAEENIMK | 4.89 |
| KKREKQREQMEQMKQSIAEENIMK | 5.52 |
| KKREKQREQMEQMKQDIAEENIMK | 5.56 |
| KKREKQREQMEQMKQAIAEENIMK | 5.42 |
| KKREKQREQMEQMKQHIAEENIMK | 5.09 |
| KKREKQREQMEQMKQNIAEENIMK | 4.67 |
| KKREKQREQMEQMKQGIAEENIMK | 5.32 |
| KKREKQREQMEQMKQKIAEENIMK | 4.83 |
| KKREKQREQMEQMKQTIAEENIMK | 5.01 |
| KKREKQREQMEQMKQEIAEENIMK | 5.53 |
| KKREKQREQMEQMKQFIAEENIMK | 4.52 |

| Variant | protein stability index |
| --- | --- |
| KKREKQREQMEQMKQPIAEENIMK | 5.19 |
| KKREKQRERMEQMKQRIAEENIMK | 4.56 |
| KKREKQRETMEQMKQRIAEENIMK | 4.72 |
| KKREKQREMMEQMKQRIAEENIMK | 4.4 |
| KKREKQRENMEQMKQRIAEENIMK | 4.8 |
| KKREKQREAMEQMKQRIAEENIMK | 4.86 |
| KKREKQREYMEQMKQRIAEENIMK | 4.51 |
| KKREKQREIMEQMKQRIAEENIMK | 4.01 |
| KKREKQREFMEQMKQRIAEENIMK | 4.16 |
| KKREKQREHMEQMKQRIAEENIMK | 4.68 |
| KKREKQREKMEQMKQRIAEENIMK | 4.93 |
| KKREKQREPMEQMKQRIAEENIMK | 4.89 |
| KKREKQRELMEQMKQRIAEENIMK | 4.92 |
| KKREKQREEMEQMKQRIAEENIMK | 5.18 |
| KKREKQRECMEQMKQRIAEENIMK | 4.73 |
| KKREKQREDMEQMKQRIAEENIMK | 4.96 |
| KKREKQREWMEQMKQRIAEENIMK | 4.13 |
| KKREKQREGMEQMKQRIAEENIMK | 4.75 |
| KKREKQRESMEQMKQRIAEENIMK | 4.74 |
| KKREKQREVMEQMKQRIAEENIMK | 4.67 |
